In the nanobody polyreactivity screen of Harvey et al. (2022):

Experiment: yeast display, Sf9 membrane polyspecificity reagent, FACS + sequencing; frameworks hold sequencing errors
Method in brief: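 A synthetic nanobody library was expressed on Saccharomyces cerevisiae BJ5465 by galactose induction for 36–48 hours. The library was stained for 1 hour at 4 °C with 10% biotinylated, detergent-solubilized Sf9 membrane reagent and enriched with streptavidin microbeads before FACS. Low and high (top ~1%) gates were set on anti-HA fluorescence for expression and streptavidin fluorescence for reagent binding, and each polyreactivity label reflects the gate of origin.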

Sequence: QVQLVESGGGLVQAGGSLRLSCAASGLIFLWYAMGWYRQAPGKERELVAAIRSSGDSTYYADSVKGRFTISRDNAKNTVYLQMNSLKPEDTAVYYCNRRKTNSRYDYCGQGTQVTVSS
- polyreactivity (PSR sort gate): low polyreactivity

Sequence: QVQLVESGGGLVQAGGSLRLSCAASVFTFISYAMGRYRQAPGKEREFVAAITRGGGSTYYADSVKGRFTISRDNAKNTVYLQMNSLKPEDTAVYYCAADPQSTIRDYWGQGTQVTVSS
- polyreactivity (PSR sort gate): high polyreactivity

Sequence: QVQLVESGGGLVQAGGSLLLSCAASGSIFGWYAMGWYRQAPGKERELVAAISSSGDSTYYADSVKGRFTISRDNAKNTVYLQMNSLKPEDTAVYYCAAEYWPSSPSAPGFDYDHWGQGTQVTVSS
- polyreactivity (PSR sort gate): low polyreactivity

Sequence: QVQLVESGVGLVQARGSLRLSSASSGSILSTYAMGCYRQAPGKERELVASISSNAGSTYYADSVKGRFTISRDNAKNTVYLQMNSLKPEDTAVYYCNVKYKYYSPNYDYWGEGTQVTVSS
- polyreactivity (PSR sort gate): low polyreactivity

Sequence: QVQLVESGGGLVQAGGSLRLSCAASGRIFQRNVMGWYRQAPGKERELVASITGGGTTNYAHSVKGRFTISRDNAKNTVYLPRNSLKPEDTAVYYCNRRQNVGRVSQYEYWGQGTQVTVSS
- polyreactivity (PSR sort gate): low polyreactivity

Sequence: QVQLVESGGGLVQAGGSLRFSCAASGRTIYYNTMGWYRQAPGKERELVAAINYGGSTYYADSVKGRFTISRDNAKNTVYLQMHSLKPEDTAVYYCNAVTRPKTWRYDYWGQGPQVTVSS
- polyreactivity (PSR sort gate): high polyreactivity

Sequence: QVQLVESGGGLVQAGGSLRLSCAASGFTLKRYAMGWYRQAPGKERELVAAISTGGSTYYADSVKGRFTISRDNAKNTVYLQMNSLKPEDTAVYYCAAKRYNRLRSYRYSDREDYWGQGTQVTVSS
- polyreactivity (PSR sort gate): high polyreactivity

Sequence: QVQLVESGGGLVQAGGSLRLSCAASGSIFRSYAMGWYRQAPGKQREFVAAITGSGGRTYYADSVKGRFTISRDNAKNTVYLQMNCLKPEDTAVYYCAAALSRRYKSGGPYGFNYWGQGTQVTVSS
- polyreactivity (PSR sort gate): high polyreactivity

Sequence: QVQLVESGGGLVQAGGSLRLSCAASGFILYYYAMGWSRQAPGKERELVAAISWSGDSTYYADSVKGRFTISRDNAKNTVYLQMNSLKPEDTAVYYCAATWQLTHRYYWGQGTQVTVSS
- polyreactivity (PSR sort gate): low polyreactivity

Sequence: QVQLVESGGGLVQAGGSLRLSCAASGRTFPWYAMGWYRQAPGKERELVAAITYSVGSTYYADSVKGRFTISRDNAKNTVYLQMNSLKPEDTAVYYCAADSYPYRYRGKYSRLDYWGQGTQVTVSS
- polyreactivity (PSR sort gate): low polyreactivity

Sequence: QVQLVESGGGLVQAGGSLRLSCAASGRIFYRYVMGWYRQAPGKERELVAAITSSGGSTYYADSVKGRFTISRDNAKHTVYLQMISLQPEDTAVYYCAADRYTRYRYNYWGQGTQVTVSS
- polyreactivity (PSR sort gate): high polyreactivity

Sequence: QVQLVESGGGLVQAGGSLRLSCAASGRNFPYYAMGWYRQAPGKERELVATISSSGGSTYYADSVKGRFTISRDNAKNTVYLQMNSLKPEDTAVYYCAADWYGYRQFHGYYWGQGTQVTVSS
- polyreactivity (PSR sort gate): high polyreactivity

Sequence: QVQLVESGGVLVQAGGSLRLSCAASGSTFYPNAMGWYRQAPGQEREFVAAISDGGSTTYADSVKGRFTISRDNAKNTVYLQMNSLKPEDTAVYYCNARVGSYTPSWYYQEFDYWGQGTQVTVSS
- polyreactivity (PSR sort gate): low polyreactivity

Sequence: QVQLVESGGGLVQAGGSLRLSCAASGRTFPLNAMGWYRQAPGKERELVAAITWSGGRTYYADSVKGRFTISRDNAKNTVYLQMNSLKPEDTAVYYCATDRYAYKLYDYWGQGTQVTVSS
- polyreactivity (PSR sort gate): low polyreactivity

Sequence: QVQLVESGGGLVHAGGSLRLSCAASGITFEGNAMGWNRQAPGTERELVAAIRSSGTSTYYADSVKGRFTFSRDNEKKTVYLQMNSLKPEDTAVYYCNRARSSSRYDYWGEGTQVTVSS
- polyreactivity (PSR sort gate): low polyreactivity

Sequence: QVQLVESGGGLVQAGGSLRLSCAASGFTFKDYAMGWYRQAPGKERELVAANSRSGGSTYYADSVKGRFTNSRDSAKNTVYLQMNSLKPEDTAVYYCAAAYVRYRDPYGYWGQGTQVTVSS
- polyreactivity (PSR sort gate): high polyreactivity

Sequence: QVQLVESGGGLVQAGGSLRLSCAASGLTFAWNDMGWYRQAPGKERELVAAISIIGTTYYADSVKGRFTISRDNAKNTVYLQMNSLKREDTAVYYCAKTGFLGLRQYGYWGQGTQVTVSS
- polyreactivity (PSR sort gate): high polyreactivity

Sequence: QDQLVESGGGLVQAGGSLRLSCAAYGSIFYVYAMGWYRQAPGKERELVAAIRRTGSSTYYADSVKGRFTISRDNAKNTVSLQMNSLKPEDTAVYYCAASYWRARAGSYDYWGQGTQVTVSS
- polyreactivity (PSR sort gate): high polyreactivity

Sequence: QVQLVESAGGLVQAGGILRLSCAASGRIFPYYDMGWYRQAPGKERELVAAITWNGGSTYYADSVKGRFTISRDNANNTVYLQMNSLKPEDTAVYYCAVEPYYYGEDYWGQGTQVTVSS
- polyreactivity (PSR sort gate): low polyreactivity

Sequence: QVQLVESGGGLVQAGGSLRLSCAASGSTIYLYDMGWYRQAPGKERELVATITSGTSTTYADSVKGRFTISRDYAKNTVYLQMNSLKPADTAVYYCNATDVGIITVGYGHGGYYWGQGTQVTVSS
- polyreactivity (PSR sort gate): low polyreactivity

Sequence: QVQLVESGVGLVQAGGSLRISCAASGFIFDWNAMGWYRQAPGKERELVAAISSGGSTHYADSVKGRFTISRDNAKNTVYLQMNSLKPEDTAVYYCAARFPQWRYSRRTGERFDYWGQGTQVTVSS
- polyreactivity (PSR sort gate): low polyreactivity

Sequence: QVQLVESGGGLVQAGGSLRLSCAASGFISFAYAMGWYRQAPGKERELVAGISRSGDSTYYADSVKGRFTISRDNAKNTVYLQMNSLKPEDTAVYYCAVVTYRSKAHSSRNGKYYYWGQGTQVTVSS
- polyreactivity (PSR sort gate): low polyreactivity
